Data from publication PMC9888213, “The Mobility of the Cap Domain Is Essential for the Substrate Promiscuity of a Family IV Esterase from Sorghum Rhizosphere Microbiome” (Applied and Environmental Microbiology, 2023).

Columns and labels:
Assay in all cases: purified protein
Type in all cases: biochemical, uncultured Sphingomonas sp.
[1] = system: T1, CCCC(=O)Oc1ccc([N+](=O)[O-])cc1; settings: 50 mM potassium phosphate pH 7.0, 0.3% Triton X-100, 30 °C, up to 5% DMSO-acetonitrile
T1 construct: full length, 324 residues, N-terminal His6 tag (p15TV-L), expressed in E. coli BL21(DE3), Ni-NTA purified; homodimer

[2] = system: T2, CCCCCCCCCCCC(=O)Oc1ccc([N+](=O)[O-])cc1; settings: 50 mM potassium phosphate pH 7.0, 0.3% Triton X-100, 30 °C, up to 7.5% DMSO-acetonitrile
T2 construct: full length, 324 residues, N-terminal His6 tag (p15TV-L), expressed in E. coli BL21(DE3), Ni-NTA purified; homodimer

[3] = system: T3, CC(=O)Oc1ccc([N+](=O)[O-])cc1; settings: 50 mM potassium phosphate pH 7.0, 0.3% Triton X-100, 30 °C, up to 5% DMSO-acetonitrile
T3 construct: full length, 324 residues, N-terminal His6 tag (p15TV-L), expressed in E. coli BL21(DE3), Ni-NTA purified; homodimer

EH0 (uncultured Sphingomonas sp.)
Km [1]: 1080 ± 180 µM | Vmax [1]: 253 µM/min | kcat [1]: 0.602 ± 0.033 s⁻¹ | kcat/Km [1]: 558 M⁻¹ s⁻¹ | Km [2]: 1000 ± 280 µM | Vmax [2]: 25.6 µM/min | kcat [2]: 0.0608 ± 0.00433 s⁻¹ | kcat/Km [2]: 61 M⁻¹ s⁻¹ | Km [3]: 1610 ± 120 µM | Vmax [3]: 292 µM/min | kcat [3]: 0.694 ± 0.0182 s⁻¹ | kcat/Km [3]: 430 M⁻¹ s⁻¹
